± gives the standard error. For part of these data: Variants at the floor of the assay were thinned out.
B1: glmS ribozyme (parent)
chain: AUAAAAGCGCCAGAACUACAGAAAUGUAGUUGACGAGGAGGAGGUUUAUCGAAUUUUCGGCGGAUGCCUCCAAA

How the values were obtained:
Conditions in all cases: with glucosamine-6-phosphate
[1] = variants of: B1; experiment: kcat; higher = faster cleavage; RNA array
Summary of the method: (§1)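 Tiles bearing barcoded ribozyme variants, transcribed in situ by E. coli RNA polymerase on sequenced MiSeq chips, were imaged over ~14 h at 37 °C using a hybridised Cy3 probe. Glucosamine-6-phosphate was supplied at 40 μM to 10 mM in HEPES/KCl/Mg(OAc)2 buffer. kobs came from one- or two-exponential decay fits to normalised per-tile medians, and weighted Michaelis–Menten fits then provided kcat and KM.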

[2] = variants of: B1; experiment: self-cleavage kobs at 640 uM GlcN6P; higher = faster cleavage; RNA array
Summary of the method: as §1

[3] = variants of: B1; experiment: KM; higher = weaker cofactor use; RNA array
Summary of the method: as §1

[4] = variants of: B1; experiment: self-cleavage kobs at 2500 uM GlcN6P; higher = faster cleavage; RNA array
Summary of the method: as §1

[5] = variants of: B1; experiment: self-cleavage kobs at 10000 uM GlcN6P; higher = faster cleavage; RNA array
Summary of the method: as §1

[6] = variants of: B1; experiment: self-cleavage kobs at 40 uM GlcN6P; higher = faster cleavage; RNA array
Summary of the method: as §1

[7] = variants of: B1; experiment: self-cleavage kobs at 160 uM GlcN6P; higher = faster cleavage; RNA array
Summary of the method: as §1

| Variant | kcat [1] | self-cleavage kobs at 640 uM GlcN6P [2] | KM [3] | self-cleavage kobs at 2500 uM GlcN6P [4] | self-cleavage kobs at 10000 uM GlcN6P [5] | self-cleavage kobs at 40 uM GlcN6P [6] | self-cleavage kobs at 160 uM GlcN6P [7] |
| --- | --- | --- | --- | --- | --- | --- | --- |
| AUAAAAGCGCCAGAACUACAGAAAUGUAAUUGACGAGGAGGAGGUUUAUCGAAUUUUCGGCGGAUGUCUCGAAA [G29A C67U C71G] | 4.81e-05 ± 2.2e-05 s⁻¹ | 9.19e-05 ± 4.3e-05 s⁻¹ | – | – | – | – | – |
| AUAAAAGCGCAAGAACUACAGAAAUGUAGUUGACGAGGAGGAGGUUUAUCGAUUUUUCGGCGGAUGCCUCCAAA [C11A A53U] | 0.000128 ± 2.5e-06 s⁻¹ | – | 2860 ± 180 µM | 6.02e-05 ± 1.6e-05 s⁻¹ | 9.96e-05 ± 1.2e-05 s⁻¹ | – | – |
| AUAAAAGCGCCAGAACUACAGAAAUGUAGUUGACGAGGAGGAGGUGUAUCGAAAUUUCGGCGGAUGCCUCCAAA [U46G U54A] | 0.00945 ± 0.0015 s⁻¹ | 0.00207 ± 0.00034 s⁻¹ | 2450 ± 490 µM | 0.00434 ± 0.0016 s⁻¹ | 0.00766 ± 0.0012 s⁻¹ | 0.000165 ± 2.1e-05 s⁻¹ | 0.000444 ± 0.00011 s⁻¹ |
| AUAAAAGGGCCAGAUCUACAGAAAUGUAGUUGACGAGGAGGAGGUUUAUCGAAUCUUCGACGGAUGCCUCCAAA [C8G A15U U55C G60A] | < 1e-05 s⁻¹ | – | – | – | < 1e-05 s⁻¹ | – | – |
| AUAAAAGCGCCAGAACUACAGAAAUGUAGUUGACGAGGAGGAGGUUUAUCGAAGUUUCGGCGGUUGCCUCCAAA [U54G A64U] | 9.79e-05 ± 1.5e-05 s⁻¹ | 1.94e-05 ± 7.4e-06 s⁻¹ | – | 7.47e-05 ± 9.1e-06 s⁻¹ | 8.01e-05 ± 8e-06 s⁻¹ | – | – |
| AUAAAAGCGUCAGAACUACAGAAAUGUAGUUGACGAGGAGGAGGUUUAUCGAAUUUUCGGCGAAUGCCUCCAAA [C10U G63A] | < 1e-05 s⁻¹ | < 1e-05 s⁻¹ | – | < 1e-05 s⁻¹ | – | – | – |
| AUAAAAGCGCCAGAACUACAGAAAUGUAGUUGACGAGGAGGAGUUUUAUCGAAUUUUCGGCGGAUGUCUCCAAA [G44U C67U] | 0.00551 ± 0.0015 s⁻¹ | 0.00206 ± 0.00029 s⁻¹ | 727 ± 310 µM | 0.00417 ± 0.00073 s⁻¹ | 0.00691 ± 0.001 s⁻¹ | 0.000365 ± 4e-05 s⁻¹ | 0.000837 ± 0.00016 s⁻¹ |
| AUAAAAGCGUCAGAACUACAGAAAUGUAGUUGACGAGGAGGAGGUUUAUCGAAUUAUCGGCGGAUGCCUCCAAA [C10U U56A] | 2.68e-05 ± 5.7e-06 s⁻¹ | – | – | 3.47e-05 ± 1.4e-05 s⁻¹ | – | < 1e-05 s⁻¹ | – |
| AUAAAAGCGCCAGAGCUACAGAAAUGUAGUUGACGAGGAGGAGGUUUAUCGAAUUUUCGGCGGAUUCCUCCAAA [A15G G66U] | 0.00552 ± 0.0016 s⁻¹ | 0.000492 ± 9.7e-05 s⁻¹ | 5370 ± 2200 µM | 0.00161 ± 0.00029 s⁻¹ | 0.00374 ± 0.00049 s⁻¹ | 6.81e-05 ± 1.4e-05 s⁻¹ | 0.000169 ± 3.6e-05 s⁻¹ |

Source: the supplement of paper PMC7125110
